Laboratory results taken from article PMC10883291.

Legend:
Test in all cases: FRET or BRET; time-resolved FRET (Cisbio); FcγRs expressed on HEK293 cells (Tb donor cells); IgG-d2 acceptor conjugate displaced by the test antibodies; EC50 by the manufacturer's protocol
FcγR2B (human) = FcγR2B (human) (UniProt P31994)
FcγR1 (CD64) (human) = FcγR1 (CD64) (human) (UniProt P12314)
[1] = molecular target: FcγR2A (CD32aH131) (human) (UniProt P12318)
[2] = molecular target: FcγR3A (CD16aF158) (human) (UniProt P08637)
Chain of FcγR3A (CD16aF158) (human) (P08637 17-254): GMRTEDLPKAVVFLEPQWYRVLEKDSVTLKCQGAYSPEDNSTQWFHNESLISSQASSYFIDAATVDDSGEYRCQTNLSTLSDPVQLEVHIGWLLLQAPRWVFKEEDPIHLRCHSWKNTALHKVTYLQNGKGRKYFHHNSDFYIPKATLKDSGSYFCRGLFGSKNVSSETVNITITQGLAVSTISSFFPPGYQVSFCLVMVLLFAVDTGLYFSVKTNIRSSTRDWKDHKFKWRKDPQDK

[3] = molecular target: FcγR2A (CD32aR131) (human)
Chain of FcγR2A (CD32aR131) (human) (P12318 34-317 H167R): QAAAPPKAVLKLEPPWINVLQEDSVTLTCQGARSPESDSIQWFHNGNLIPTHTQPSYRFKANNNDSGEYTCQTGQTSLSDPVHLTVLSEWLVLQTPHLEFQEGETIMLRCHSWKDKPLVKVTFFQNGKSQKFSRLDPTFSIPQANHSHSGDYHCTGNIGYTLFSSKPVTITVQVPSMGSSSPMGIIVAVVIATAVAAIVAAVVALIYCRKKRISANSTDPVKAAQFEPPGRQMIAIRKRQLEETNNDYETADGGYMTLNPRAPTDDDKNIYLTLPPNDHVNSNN

Chain of FcγR1 (CD64) (human) (P12314 16-374): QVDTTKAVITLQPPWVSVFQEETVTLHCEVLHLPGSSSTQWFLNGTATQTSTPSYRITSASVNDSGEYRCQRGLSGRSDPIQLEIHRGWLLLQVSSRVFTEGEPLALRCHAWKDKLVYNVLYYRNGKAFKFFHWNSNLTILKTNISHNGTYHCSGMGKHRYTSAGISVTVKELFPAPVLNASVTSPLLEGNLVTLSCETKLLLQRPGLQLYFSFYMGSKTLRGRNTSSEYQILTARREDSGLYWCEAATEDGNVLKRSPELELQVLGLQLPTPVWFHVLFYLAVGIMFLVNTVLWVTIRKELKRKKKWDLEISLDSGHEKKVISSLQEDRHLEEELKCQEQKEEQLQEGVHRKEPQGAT
Chain of FcγR2A (CD32aH131) (human) (P12318 34-317): as the sequence (P12318 34-317 H167R) above, with R134H counted along it
Chain of FcγR2B (human) (P31994 43-310): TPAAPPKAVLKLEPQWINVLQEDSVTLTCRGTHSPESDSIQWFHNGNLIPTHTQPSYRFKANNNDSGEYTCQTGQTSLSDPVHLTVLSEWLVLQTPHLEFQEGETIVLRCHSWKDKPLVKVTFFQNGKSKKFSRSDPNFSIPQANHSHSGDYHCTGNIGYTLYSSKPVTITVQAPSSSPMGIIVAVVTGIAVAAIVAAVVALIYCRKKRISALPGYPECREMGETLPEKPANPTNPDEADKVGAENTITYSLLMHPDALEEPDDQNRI

## BMS-986351 (antibody)
FcγR2B (human)
  EC50: 2480 nM
FcγR1 (CD64) (human)
  EC50: 0.8 nM
[1]
  EC50: 200 nM
[2]
  EC50: 1200 nM

## Rituximab (antibody)
FcγR1 (CD64) (human)
  EC50: 0.8 nM
[3]
  EC50: 194 nM
[1]
  EC50: 361 nM
